Measured values as given in US9115359B2, “Methods for producing secondary metabolites” (NewSouth Innovations Pty Limited, priority 2007, dated 2015).

Key:
E. coli AcpS = settings: reported (21,40); with respect to CoA; cited from earlier work
Nppcp = test: NhcS PPT assay, ESI-MS; type: biochemical, Nostoc punctiforme; settings: 30 minutes, 37° C.
Procedure: (§1) PPT assays were carried out as previously described in Finking, R., et al., (2002) Characterization of a new type of phosphopantetheinyl transferase for fatty acid and siderophore synthesis in Pseudomonas aeruginosa. J Biol Chem 277:50293-302). In brief, a 100-400 μL reaction comprising of 50 mM Tris-HCl pH 7.4, 12.5 mM MgCl, 0.5 mM CoA, 2 μM DTT, 30 μg of the respective carrier proteins (CPs) and 300 nM of PPT was incubated at 37° C. for 30 minutes. Reactions were terminated by the addition of 1 ml of 10% TCA. Assays were precipitated overnight at −20° C. before at centrifugation 4° C., for 15 mins at 16,000 g. Protein pellets were analysed by electrospray ionisation mass spectrometry (ESI-MS). Spectra were acquired using an API QStar Pulsar i hybrid tandem mass spectrometer (Applied Biosystems, Foster City Calif.). Samples (˜200-400 fmol) were dissolved in water:acetonitrile:formic acid (50:49:1), loaded (1 μl) into nanospray needles (Proxeon, Denmark) and the tip positioned ˜10 mm from the orifice. Nitrogen was used as curtain gas and a potential of 900 V applied to the needle. A T of MS scan was acquired (m/z 550-2000, 1 second) and accumulated for ˜1 minute into a single file. […]
(§2) Activity was detected by ionisation mass spectrometry through the mass addition of […], relating to the incorporation of the pantetheinyl arm of CoA transferred by the PPT to the CP (FIG. 17).

[1] = test system: Synechocystis sp. PCC6803; test: Complementation of Sppt gene disruption with NsPPT; type: cell-based; settings: PCR screening of segregation
Text: A 2.5 kb fragment including Sppt (slr0495, Swissprot accession number Q55185) was amplified with the primers sirup (5′-[…]-3′) (SEQ ID NO: 7) and slrdn (5′-[…]-3′) (SEQ ID NO: 8). This fragment was cloned into pGEM-T-Easy (Promega) and digested with the restriction enzyme AvaI. A chloramphenicol (Chl^R) resistance cassette was ligated into this site and the resulting plasmid, pGCSlr, was naturally transformed into Synechocystis sp. PCC6803 to insertionally inactivate Sppt using methods described in Eaton-Rye, J., 2004 The construction of gene knockouts in the cyanobacterium Synechocystis sp. PCC 6803, Methods Mol. Biol.; 274:309-24. The Synechocystis sp. PCC6803 wildtype (WT) was also transformed with a chloramphenicol resistance knockout plasmid as a positive control for strain viability. Briefly, approximately 2 ml Synechocystis sp. PCC6803 cells were centrifuged and washed in BG-11 media. After resuspension in […] BG-11, 3 μg ml^−1 plasmid was added and the cells were incubated at 25° C. in 30 μmol m^−2 sec^−1 constant light for 6 hours. The cells were spread onto sterile nitrocellulose filters (0.45 μm, Millipore, Billerica Mass.) on non-selective BGTS plates (BG-11, 10 mM TES, 0.3% sodium thiosulfate, 1% agar). After 36 hours, the filters were transferred to selective BGTS plates with 10 μg ml^−1 chloramphenicol. […]

Mpcp = test: NhcS PPT assay, ESI-MS; type: biochemical, Microcystis aeruginosa; settings: 30 min assay
Procedure: as §1, §2

HetM ArCP = test: NhcS PPT assay, ESI-MS; type: biochemical, N. punctiforme ATCC29133; settings: 30 minutes, 37° C.
Procedure: as §1, §2

| Molecule | kcat value (E. coli AcpS) | pantetheinylation of Nppcp (Nppcp) | Sppt gene disruption in NsPPT-complemented strain [1] | pantetheinylation of Mpcp (Mpcp) | conversion of apo-ArCP to holo-ArCP (HetM ArCP) |
| --- | --- | --- | --- | --- | --- |
| CC(C)(COP(=O)(O)OP(=O)(O)OC[C@H]1O[C@@H](n2cnc3c(N)ncnc32)[C@H](O)[C@@H]1OP(=O)(O)O)[C@@H](O)C(=O)NCCC(=O)NCCS [CoA, co-enzyme A] | approximately 10 min^d |  |  |  |  |
| NhcS: phosphopantetheinyl transferase (heterocyst carrier protein synthase) from Nodularia spumigena NSOR10 (protein) MTALNHLWLPVPTNLTLLPNDVHIWRIHLDVPEAQQQNLLATLSGDELTRANRFHFQEHRQRFIAGRGILRSILGSYLGIEPQRVLFDYQERGKPILADSLAKSGLWFNLSHSQGLALCAVNYHNRIGIDLEYIRRMSDVEALAKRFFLPREYDVVRSLSDHQQQEIFFRYWTCKEAYLKATGEGLAQLEQVEVLLNPTEPAQLQTSESWSLFELRAAEDYFAAVVVEGSGCNLQCWQY |  | Nppcp was pantetheinylated | Sppt was effectively disrupted in the NsPPT-complemented strain | Complete pantetheinylation | conversion of the apo-ArCP (15.75 kDa) to the holo-ArCP (16.05 kDa) is seen |
